Test results as given in PMC10465574, “Chlorfenapyr metabolism by mosquito P450s associated with pyrethroid resistance identifies potential activation markers” (Scientific Reports, 2023).

Legend:
[1] = molecular target: T1, CYP6P3 (Anopheles gambiae, UniProt Q8T632); test: inhibition of diethoxyfluorescein (DEF) fluorescent probe metabolism; assay type: biochemical
T1 construct: recombinant, pCWori+ vector, E. coli membranes co-expressing An. gambiae CPR; cytochrome b5 added in metabolism assays; with NADPH--cytochrome P450 reductase
T1 sequence (Q8T632 1-509): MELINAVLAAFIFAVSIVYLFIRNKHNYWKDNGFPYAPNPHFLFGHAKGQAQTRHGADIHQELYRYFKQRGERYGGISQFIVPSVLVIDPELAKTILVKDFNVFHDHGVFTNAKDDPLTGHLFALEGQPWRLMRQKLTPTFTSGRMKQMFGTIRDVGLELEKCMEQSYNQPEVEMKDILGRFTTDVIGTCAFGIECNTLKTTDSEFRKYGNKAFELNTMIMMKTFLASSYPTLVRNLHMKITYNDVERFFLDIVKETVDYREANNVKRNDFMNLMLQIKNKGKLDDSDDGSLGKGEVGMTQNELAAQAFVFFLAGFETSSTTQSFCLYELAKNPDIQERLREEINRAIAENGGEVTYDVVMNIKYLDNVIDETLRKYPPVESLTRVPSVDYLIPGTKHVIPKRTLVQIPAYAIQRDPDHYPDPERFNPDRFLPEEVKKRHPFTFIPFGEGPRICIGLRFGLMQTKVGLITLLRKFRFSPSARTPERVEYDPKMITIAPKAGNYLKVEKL
T1 sequence (Q86QH5 1-679 partner): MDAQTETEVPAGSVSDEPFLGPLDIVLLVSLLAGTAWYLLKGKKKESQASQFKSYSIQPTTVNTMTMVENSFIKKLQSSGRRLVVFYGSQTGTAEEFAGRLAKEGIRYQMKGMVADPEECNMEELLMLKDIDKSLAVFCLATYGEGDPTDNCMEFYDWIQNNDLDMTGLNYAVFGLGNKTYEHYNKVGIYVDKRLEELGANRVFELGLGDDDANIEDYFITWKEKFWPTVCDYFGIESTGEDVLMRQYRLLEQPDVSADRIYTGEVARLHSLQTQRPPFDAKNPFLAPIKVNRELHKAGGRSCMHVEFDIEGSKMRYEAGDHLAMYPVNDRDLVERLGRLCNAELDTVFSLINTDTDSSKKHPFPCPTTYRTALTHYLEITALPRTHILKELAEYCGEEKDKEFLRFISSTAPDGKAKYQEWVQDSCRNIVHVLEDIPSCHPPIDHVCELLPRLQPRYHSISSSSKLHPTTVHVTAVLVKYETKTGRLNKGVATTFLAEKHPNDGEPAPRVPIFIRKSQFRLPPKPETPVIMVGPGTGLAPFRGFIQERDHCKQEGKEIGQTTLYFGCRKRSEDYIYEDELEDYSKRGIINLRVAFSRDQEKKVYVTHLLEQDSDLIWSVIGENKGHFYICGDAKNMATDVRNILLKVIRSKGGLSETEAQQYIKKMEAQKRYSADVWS

[2] = molecular target: T2, CYP9K1 (Anopheles gambiae, UniProt Q8T633); test: inhibition of chlorfenapyr depletion, HPLC; assay type: biochemical
T2 construct: recombinant, pCWori+ vector, E. coli membranes co-expressing An. gambiae CPR; cytochrome b5 added; with NADPH--cytochrome P450 reductase
T2 sequence (Q8T633 1-531): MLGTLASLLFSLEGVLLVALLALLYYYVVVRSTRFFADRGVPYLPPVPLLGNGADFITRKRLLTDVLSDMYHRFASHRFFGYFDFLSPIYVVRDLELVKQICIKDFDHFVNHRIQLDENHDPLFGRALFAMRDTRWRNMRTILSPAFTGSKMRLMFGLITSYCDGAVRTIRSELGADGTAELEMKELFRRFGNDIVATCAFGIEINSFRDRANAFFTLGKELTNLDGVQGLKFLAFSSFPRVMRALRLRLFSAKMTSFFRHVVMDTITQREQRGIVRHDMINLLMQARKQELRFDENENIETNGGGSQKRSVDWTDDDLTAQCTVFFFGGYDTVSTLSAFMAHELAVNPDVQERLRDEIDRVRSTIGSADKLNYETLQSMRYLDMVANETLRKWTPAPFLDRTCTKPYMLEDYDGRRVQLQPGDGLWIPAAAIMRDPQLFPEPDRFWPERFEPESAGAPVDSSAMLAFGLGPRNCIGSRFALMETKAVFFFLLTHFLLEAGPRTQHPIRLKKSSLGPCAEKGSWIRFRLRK
T2 sequence (Q86QH5 1-679 partner): T1 sequence (Q86QH5 1-679 partner)

[3] = substrate: CCOCn1c(-c2ccc(Cl)cc2)c(C#N)c(Br)c1C(F)(F)F; test: tralopyril formation by HPLC, Michaelis-Menten fit; assay type: biochemical, Anopheles gambiae; details: NADPH regeneration system, 0.8 µM cytochrome b5, 50 mM potassium phosphate pH 7.4, recombinant E. coli membranes

CCOCn1c(-c2ccc(Cl)cc2)c(C#N)c(Br)c1C(F)(F)F [chlorfenapyr]
IC50 [1]: 30.4 µM

CC1(C)C(C=C(Cl)Cl)C1C(=O)OC(C#N)c1cccc(Oc2ccccc2)c1 (stereo not drawn) [α-cypermethrin]
inhibition at 10 µM [2]: 56.8% | IC50 [1]: 16.7 µM

B1: CYP9K1 (Anopheles gambiae) (protein)
chain: T2 sequence (Q8T633 1-531)
notes: recombinant, pCWori+ vector, E. coli membranes co-expressing An. gambiae CPR; cytochrome b5 added; with NADPH--cytochrome P450 reductase
Km [3]: 10.13 µM | kcat [3]: 6.70 min⁻¹

B2: CYP6P3 (Anopheles gambiae) (protein)
chain: T1 sequence (Q8T632 1-509)
notes: recombinant, pCWori+ vector, E. coli membranes co-expressing An. gambiae CPR; cytochrome b5 added in metabolism assays; with NADPH--cytochrome P450 reductase
Km [3]: 16.32 µM | kcat [3]: 1.71 min⁻¹
